From US10724034B2, “Genetic encoding of chemical post-translational modification for phage-displayed libraries” (THE GOVERNORS OF THE UNIVERSITY OF ALBERTA, priority 2014, dated 2020)
Values belong to the molecule of their own block, whether it stands above or below them. Ends that are not written are not given here. SA = 4-(aminooxymethyl)benzenesulfonamide joined by oxime ligation to the periodate-oxidised N-terminal serine; Glu = glucose (not glutamate); Gal = galactose; Rha = rhamnose

Legend:
human Galectin-3 = human Galectin-3 (Homo sapiens, UniProt P17931); test: ELISA-like competition assay: inhibition of HRP-Lactose binding to surface-immobilized Galectin-3; conditions: for Times more potent than MeGal at inhibiting HRP-Lac binding to Galectin-3: versus MeGal
Chain of human Galectin-3 (P17931 whole entry, the tested form may be a part): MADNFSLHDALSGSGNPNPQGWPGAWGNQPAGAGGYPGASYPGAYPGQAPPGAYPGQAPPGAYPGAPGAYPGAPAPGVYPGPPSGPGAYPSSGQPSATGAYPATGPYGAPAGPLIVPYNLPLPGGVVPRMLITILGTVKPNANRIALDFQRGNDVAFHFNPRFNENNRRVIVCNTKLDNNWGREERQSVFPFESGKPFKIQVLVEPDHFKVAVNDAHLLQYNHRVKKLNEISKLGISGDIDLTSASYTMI
Excerpt: Using an ELISA-like competition assay (FIGS. 12, 13), the binding activity of these glycopeptides to carbohydrate recognition domain (CRD) of the human Galectin-3 and their ability to compete with binding of Lactose-conjugated horseradish peroxidase (HRP), were validated (FIG. 12). As references, we used known Gal3 ligands, such as lactose, Methyl-β-D-galactopiranoside (MeGal) and tetrasaccharide Lacto-N-Tetraose (LNT).
FIG. 12 illustrates an evaluation of activity of hits identified from genetically-encoded libraries of glycopeptides against […]. The assay measures that inhibitory constant (denoted as Effective concentrations of half-maximal response or EC50) of compounds in the inhibition of the interaction between soluble HRP-Lactose and surface-immobilized Galectin-3.
The competitive activity is quantified as decrease in color development by HRP-lac conjugate bound to Galectin-3 coated at 10 μg/ml concentration on polystyrene 96-well plates.

human Galectin-3 protein [1] = target: T1, human Galectin-3 protein (human, UniProt P17931 2-250, limits assumed); test: ELISA-like competition with HRP-Lactose on Galectin-3 coated wells; reference MeGal
T1 construct: also called Gal3
T1 sequence (P17931 2-250 limits assumed): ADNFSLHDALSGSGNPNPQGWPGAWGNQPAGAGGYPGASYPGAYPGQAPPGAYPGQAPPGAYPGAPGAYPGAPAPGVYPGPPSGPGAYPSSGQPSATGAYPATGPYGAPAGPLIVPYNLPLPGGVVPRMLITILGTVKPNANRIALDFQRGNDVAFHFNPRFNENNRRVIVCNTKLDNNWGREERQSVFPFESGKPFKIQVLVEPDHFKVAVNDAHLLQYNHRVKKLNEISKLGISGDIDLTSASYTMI

human Galectin-3 protein [2] = target: T1, human Galectin-3 protein; test: ELISA-like competition with HRP-Lac on Galectin-3 coated plates; reference lactose
human Galectin-3 protein [3] = target: T1, human Galectin-3 protein; test: ELISA-like competition with HRP-Lac on Galectin-3 coated plates; reference MeGal
human Galectin-3 protein [4] = target: T1, human Galectin-3 protein; test: ELISA-like competition with HRP-Lac on immobilised Galectin-3; reference MeGal
How it was run: (§1)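 Polystyrene 96-well plates were coated at 10 μg/ml with the carbohydrate recognition domain of human Galectin-3 for an ELISA-like competition assay. A lactose-conjugated horseradish peroxidase probe was bound, and test molecules competed with it, with competition read as lower colour development. Values give the fold difference in inhibition relative to a known Galectin-3 reference ligand run in the same assay.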

human Galectin-3 protein [5] = target: T1, human Galectin-3 protein; test: ELISA-like competition with HRP-Lac on immobilised Galectin-3; reference Lacto-N-Tetraose
How it was run: as §1

human Galectin-3 protein [6] = target: T1, human Galectin-3 protein; test: competition ELISA: HRP-Lactose binding to plate-coated Galectin-3 [lower left panel]
How it was run: (§2)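 In an ELISA-like format, polystyrene 96-well plates carried the carbohydrate recognition domain of human Galectin-3, coated at 10 μg/ml. Test molecules competed with a lactose-conjugated horseradish peroxidase probe, measured as reduced colour development, and the half-maximal inhibitory concentration was derived from the resulting curves.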

human Galectin-3 protein [7] = target: T1, human Galectin-3 protein; test: ELISA-like competition: inhibition of soluble HRP-Lactose binding to immobilised Galectin-3
How it was run: as §2

human Galectin-3 protein [8] = target: T1, human Galectin-3 protein; test: competition ELISA: HRP-Lactose binding to plate-coated Galectin-3 [upper right panel]
How it was run: as §2

human Galectin-3 protein [9] = target: T1, human Galectin-3 protein; test: competition ELISA: HRP-Lactose binding to plate-coated Galectin-3 [lower right panel]
How it was run: as §2

human Galectin-3 protein [10] = target: T1, human Galectin-3 protein; test: ELISA-like competition with HRP-Lac on immobilised Galectin-3; reference lactose
How it was run: as §1

[11] = target: T2, Bovine carbonic anhydrase II (bovine, UniProt P00921 2-260); test: ITC, replicate [row SA-WIVP, middle panel]
T2 construct: Commercial protein; also called BCA
T2 sequence (P00921 2-260 limits assumed): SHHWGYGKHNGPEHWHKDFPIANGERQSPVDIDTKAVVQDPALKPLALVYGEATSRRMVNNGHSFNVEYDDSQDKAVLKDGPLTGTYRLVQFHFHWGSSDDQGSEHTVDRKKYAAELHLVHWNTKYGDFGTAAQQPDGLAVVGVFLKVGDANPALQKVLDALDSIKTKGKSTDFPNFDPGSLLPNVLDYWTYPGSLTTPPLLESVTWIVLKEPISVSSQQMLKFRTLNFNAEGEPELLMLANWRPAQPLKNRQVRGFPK
Method: (§3) FIG. 9 provides additional replicates of raw ITC data of sulfonamide-peptide (SA-XXXX) binding to carbonic anhydrase. Raw data obtained for 30 injections of ligands (20-95 μM) into a solution of carbonic anhydrase (2.5-12 μM) at 4-min intervals and 30° C. is shown.

[12] = target: T2, Bovine carbonic anhydrase II; test: isothermal titration calorimetry; reference SA-GGGG
Method: as §3

[13] = target: T2, Bovine carbonic anhydrase II; test: ITC, replicate [row SA-WIVP, right panel]
Method: as §3

[14] = target: T2, Bovine carbonic anhydrase II; test: isothermal titration calorimetry, 30 C, single binding site model; selected peptide SA-WIVP (SEQ ID NO:26)
Method: as §3

human Galectin-3 protein [15] = target: T1, human Galectin-3 protein; test: competition ELISA: HRP-Lactose binding to plate-coated Galectin-3 [upper left panel]
How it was run: as §2

[16] = target: T2, Bovine carbonic anhydrase II; test: ITC, replicate [row SA-TRPA, middle panel]
Method: as §3

[17] = target: T2, Bovine carbonic anhydrase II; test: ITC, replicate [row SA-TRPA, left panel]
[18] = target: T2, Bovine carbonic anhydrase II; test: ITC, replicate [row SA-TRPA, right panel]
Method: as §3

[19] = target: T2, Bovine carbonic anhydrase II; test: ITC, replicate [row SA-GGGG, middle panel]
Method: as §3

[20] = target: T2, Bovine carbonic anhydrase II; test: ITC, replicate [row SA-GGGG, right panel]
[21] = target: T2, Bovine carbonic anhydrase II; test: isothermal titration calorimetry, 30 C, single binding site model; control peptide SA-GGGG (SEQ ID NO:101)
Method: as §3

Molecule: Gal-PAPT: Galactose modified glycopeptide, SEQ ID NO:105
EC50 (human Galectin-3; FIG. 12, read-out: EC50, inhibition of interaction between soluble HRP-Lactose and surface-immobilized Galectin-3): 14 µM

fold higher potency than MeGal (human Galectin-3 protein [1]): 10 fold
Molecule: Glu-SIYG (glucose-modified tetramer peptide)

Times more potent than MeGal at inhibiting HRP-Lac binding to Galectin-3 (human Galectin-3): 10 times
Molecule: Glu-SIYG: combination of glucose and tetramer peptide, SEQ ID NO:106 (also: residue 1 modified with glucose, attachment not given here)

fold better than Lactose control (human Galectin-3 protein [2]): 10 fold | fold more potent inhibitor than MeGal (human Galectin-3 protein [3]): 400 fold
Molecule: Rha-IWVR (rhamnose-peptide conjugate)

Potency in HRP-Lac competition compared in words with a control (human Galectin-3; comparison with Lactose, MeGal or LNT): in the same order of the LNT | Times better than Lactose at inhibiting HRP-Lac binding to Galectin-3 (human Galectin-3; versus Lactose): 10 times | Times more potent than MeGal at inhibiting HRP-Lac binding to Galectin-3 (human Galectin-3): 400 times
Molecule: Rha-IWVR: Rhamnose-peptide conjugate, SEQ ID NO:108 (also: residue 1 conjugated with rhamnose, attachment not given here)

fold better inhibition than MeGal (human Galectin-3 protein [4]): > 1500 fold | fold better inhibition than LNT (human Galectin-3 protein [5]): 5 fold | IC50 (read off the curve) (human Galectin-3 protein [6]): ~20 µM | EC50 (human Galectin-3 protein [7]): 14 µM | IC50 (read off the curve) (human Galectin-3 protein [8]): ~20 µM | IC50 (read off the curve) (human Galectin-3 protein [9]): ~20 µM | fold better inhibition than Lactose (human Galectin-3 protein [10]): 30 fold
B1: Gal-PAPT (galactose-modified glycopeptide) (peptide)
peptide: Gal-PAPT
modifications: also: exact galactose derivative not given here
notes: Synthetic glycan-peptide conjugate; also called glycopeptide Gal-PAPT

Kd [11]: 0.009 µM | fold stronger affinity than control peptide SA-GGGG [12]: 30 fold | Kd [13]: 0.006 µM | Kd [14]: 0.005 µM
B2: SA-WIVP (sulfonamide-modified peptide) (peptide)
peptide: {SA}-WIVP-NH2
modifications: also: N-terminal SA cap oxime-linked, made from oxidised N-terminal Ser
notes: Synthetic conjugate made from the peptide S-WIVP; The N-terminal Ser is turned into the oxime-linked sulfonamide; also called sulfonamide-peptide; SA-XXXX

IC50 (read off the curve) (human Galectin-3 protein [15]): ~1000 µM
Molecule: Rha-PQLP (not fully specified; printed as Rha-PQLP) [Rha-PQLP]

Kd [16]: 0.031 µM | Kd [17]: 0.033 µM | Kd [18]: 0.038 µM
Molecule: {SA}-TRPA-NH2 (also: N-terminal SA cap oxime-linked, made from oxidised N-terminal Ser) [SA-TRPA]

Kd [19]: 0.13 µM | Kd [20]: 0.14 µM | Kd [21]: 0.15 µM
B3: SA-GGGG (control sulfonamide-modified peptide) (peptide)
peptide: {SA}-GGGG-NH2
modifications: also: N-terminal SA cap oxime-linked, made from oxidised N-terminal Ser
notes: Control peptide in ITC; also called control peptide SA-GGGG
